# Assay results from patent US20080221021A1, “Novel Corticotropin-Releasing Factor Receptor 1 (Crfr1) Agonist” (Max-Planck-Gesellschaft Zur Forderung Der, priority 2004, published 2008).
# pIC50: −log10 of the molar value.
# What was measured:
# rat CRFR1α (rat) [1] = target: rat CRFR1α (rat) (UniProt P35353); assay: competition binding; selectivity for CRFR1 over CRFR2, reference h/rCRF; data not shown
# mouse CRFR2β (mouse) [2] = target: mouse CRFR2β (mouse) (UniProt Q60748); assay: competition binding
# rat CRFR1α (rat) [3] = target: rat CRFR1α (rat) (UniProt P35353); assay: competition binding
# mouse CRFR2β (mouse) [4] = target: mouse CRFR2β (mouse) (UniProt Q60748); assay: competition
# rat CRFR1α (rat) [5] = target: rat CRFR1α (rat) (UniProt P35353); assay: competition binding against [125I-Tyr0]h/rCRF, SPA; reference compound 6
# rat CRFR1α (rat) [6] = target: rat CRFR1α (rat) (UniProt P35353); assay: competition binding (SPA); selectivity for rCRFR1 over mCRFR2β, reference h/rCRF
# Chain of rat CRFR1α (rat) (P35353 24-415): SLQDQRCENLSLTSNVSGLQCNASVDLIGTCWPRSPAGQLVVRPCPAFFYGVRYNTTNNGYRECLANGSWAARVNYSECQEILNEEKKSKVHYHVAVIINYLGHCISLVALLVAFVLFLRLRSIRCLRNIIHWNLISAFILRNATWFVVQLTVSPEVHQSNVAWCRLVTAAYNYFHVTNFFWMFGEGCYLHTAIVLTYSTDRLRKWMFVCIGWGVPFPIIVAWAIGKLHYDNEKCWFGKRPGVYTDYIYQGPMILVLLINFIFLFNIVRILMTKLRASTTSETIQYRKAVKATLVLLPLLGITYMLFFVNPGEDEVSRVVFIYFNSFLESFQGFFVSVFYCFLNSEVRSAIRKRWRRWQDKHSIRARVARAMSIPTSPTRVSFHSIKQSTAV
# Chain of mouse CRFR2β (mouse) (Q60748 20-411): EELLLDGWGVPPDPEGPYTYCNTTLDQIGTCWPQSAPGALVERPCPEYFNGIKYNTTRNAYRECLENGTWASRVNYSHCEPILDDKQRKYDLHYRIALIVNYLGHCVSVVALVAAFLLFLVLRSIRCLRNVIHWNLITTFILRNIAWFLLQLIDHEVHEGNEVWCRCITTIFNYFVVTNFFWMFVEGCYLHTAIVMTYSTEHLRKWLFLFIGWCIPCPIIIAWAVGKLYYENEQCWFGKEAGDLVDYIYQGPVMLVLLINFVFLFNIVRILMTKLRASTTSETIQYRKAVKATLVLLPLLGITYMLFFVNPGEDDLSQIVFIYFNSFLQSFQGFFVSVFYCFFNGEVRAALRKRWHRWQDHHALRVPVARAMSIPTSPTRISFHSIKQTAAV
# Chain of human/rat corticotropin-releasing factor (P06850 154-194): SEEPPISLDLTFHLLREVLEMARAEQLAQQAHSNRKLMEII
Substance,pIC50 (mouse CRFR2β (mouse) [2]),pIC50 (rat CRFR1α (rat) [3]),further results
[Ala^41]h/rCRF (from UniProt P06850 154-194) (peptide),–,–,fold increase in CRFR1 selectivity against h/rCRF (rat CRFR1α (rat) [1]): 3 fold
[h/rCRF^1-30]x[Svg^30-40] (from UniProt P06850 154-183; P01144 30-40),6.48,8.70,–
[Svg^1-12]x[h/rCRF^14-30]x[Svg^30-40] (from UniProt P01144 1-12; P06850 167-183; P01144 30-40),6.15,8.02,–
human/rat corticotropin-releasing factor (from UniProt P06850 154-194),–,8.80,pIC50 (mouse CRFR2β (mouse) [4]): 7.38
[Ala^40] [Svg^1-12]x[h/rCRF^14-30]x[Svg^30-40] (peptide),–,–,fold increase in affinity against compound 6 (rat CRFR1α (rat) [5]): > 5 fold
[h/rCRF^1-13]x[Svg^13-29]x[h/rCRF^31-41] (from UniProt P06850 154-166; P01144 13-29; P06850 184-194),9.16,9.33,–
[Svg^1-29]x[h/rCRF^31-41] (from UniProt P01144 1-29; P06850 184-194),9.01,8.74,–
ovine corticotropin-releasing factor (peptide),–,–,fold higher selectivity for CRFR1 than h/rCRF (rat CRFR1α (rat) [6]): 3 fold
